Test results from paper PMC4601532 (Science (New York, N.Y.), 2015).

B1: Vps38, subunit of complex II (natural protein)
chain: MKRFLLSRRQRHLRMICFHNISLFRANGDSKLIKEYGDGFIPCFFILESIRGELLYVSEVQSGSLRKLSFQELPKLTGASTMIVLKLVGLVPSDILCTISSDKNGIIDDKWCVLCTYTIDLNKLQPINEDTVLITGTNAPVLDLIDGSYTLAAEKIKPLKGLVSSHKRNISQVKIKFSLAYSSLLKLNKLLEYSSQVHEEINEISSKIEDDFLSLKNQNHWYMRTVQKSIETLEKEVLQRKKSKKNIEMAQLESNDTINHSKTELSLMSQDESINDDYGSIYSRFVQIKDRLDQLRFKKLYQLIGIFHSTDLFNSDRGYIYFEKPSSVNDVINRLKLKPLNIEILLRQAGESTKHREYVNSQLGYYLLFLHLTAIQIFKAPLPYRLMYYGSTSVIDSQYPLYFTDQMISKHQAKLIKAIHYFNADILQFKQILENYRPT
B2: Vps30/ZZ-Vps38 heterodimer held on IgG beads (complex)
chain 1: MKCQTCHLPLQLDPSLEGLSLTQRNLLLSNNSIITATNENVISNKGIEAADNCGPQIPKERLRRLGEIQNIKDLNLKDDKLITDSFVFLNHDDDDNANITSNSREDQRYGNANGNDNKKANSDTSDGTSTFRDHDEEEQEATDEDENQQIQLNSKTLSTQVNAMTNVFNILSSQTNIDFPICQDCCNILINRLKSEYDDAIKERDTYAQFLSKLESQNKEISESNKEKQYSHNLSEKENLKKEEERLLDQLLRLEMTDDDLDGELVRLQEKKVQLENEKLQKLSDQNLMDLNNIQFNKNLQSLKLQYELSLNQLDKLRKINIFNATFKISHSGPFATINGLRLGSIPESVVPWKEINAALGQLILLLATINKNLKINLVDYELQPMGSFSKIKKRMVNSVEYNNSTTNAPGDWLILPVYYDENFNLGRIFRKETKFDKSLETTLEIISEITRQLSTIASSYSSQTLTTSQDESSMNNANDVENSTSILELPYIMNKDKINGLSVKLHGSSPNLEWTTAMKFLLTNVKWLLAFSSNLLSKSITLSPTVNYNDKTISGN
chain 2: B1 chain
B3: Vps30/Atg6, subunit of complex II (natural protein)
chain: B2 chain 1
B4: Vps34 (vacuolar protein sorting 34), subunit of complex II (enzyme)
chain: LNNITFCVSQDLDVPLKVKIKSLEGHKPLLKPSQKILNPELMLIGSNVFPSSDLIVSLQVFDKERNRNLTLPIYTPYIPFRNSRTWDYWLTLPIRIKQLTFSSHLRIILWEYNGSKQIPFFNLETSIFNLKDCTLKRGFESLKFRYDVIDHCEVVTDNKDQENLNKYFQGEFTRLPWLDEITISKLRKQRENRTWPQGTFVLNLEFPMLELPVVFIEREIMNTQMNIPTLKNNPGLSTDLREPNRNDPQIKISLGDKYHSTLKFYDPDQPNNDPIEEKYRRLERASKNANLDKQVKPDIKKRDYLNKIINYPPGTKLTAHEKGSIWKYRYYLMNNKKALTKLLQSTNLREESERVEVLELMDSWAEIDIDDALELLGSTFKNLSVRSYAVNRLKKASDKELELYLLQLVEAVCFENLSTFSDKSNSEFTIVDAVSSQKLSGDSMLLSTSHANQKLLKSISSESETSGTESLPIVISPLAEFLIRRALVNPRLGSFFYWYLKSESEDKPYLDQILSSFWSRLDKKSRNILNDQVRLINVLRECCETIKRLKDTTAKKMELLVHLLETKVRPLVKVRPIALPLDPDVLICDVCPETSKVFKSSLSPLKITFKTTLNQPYHLMFKVGDDLRQDQLVVQIISLMNELLKNENVDLKLTPYKILATGPQEGAIEFIPNDTLASILSKYHGILGYLKLHYPDENATLGVQGWVLDNFVKSCAGYCVITYILGVGDRHLDNLLVTPDGHFFHADFGYILGQDPKPFPPLMKLPPQIIEAFGGAESSNYDKFRSYCFVAYSILRRNAGLILNLFELMKTSNIPDIRIDPNGAILRVRERFNLNMSEEDATVHFQNLINDSVNALLPIVIDHLHNLAQYWRT

Legend:
[1] = biological target: Vps38-C2 with CC1 region (Saccharomyces cerevisiae); test: SEC-MALS
[2] = biological target: T1, Vps15, subunit of complex II (Saccharomyces cerevisiae, UniProt P22219 1-1454); test: SEC-MALS
T1 sequence: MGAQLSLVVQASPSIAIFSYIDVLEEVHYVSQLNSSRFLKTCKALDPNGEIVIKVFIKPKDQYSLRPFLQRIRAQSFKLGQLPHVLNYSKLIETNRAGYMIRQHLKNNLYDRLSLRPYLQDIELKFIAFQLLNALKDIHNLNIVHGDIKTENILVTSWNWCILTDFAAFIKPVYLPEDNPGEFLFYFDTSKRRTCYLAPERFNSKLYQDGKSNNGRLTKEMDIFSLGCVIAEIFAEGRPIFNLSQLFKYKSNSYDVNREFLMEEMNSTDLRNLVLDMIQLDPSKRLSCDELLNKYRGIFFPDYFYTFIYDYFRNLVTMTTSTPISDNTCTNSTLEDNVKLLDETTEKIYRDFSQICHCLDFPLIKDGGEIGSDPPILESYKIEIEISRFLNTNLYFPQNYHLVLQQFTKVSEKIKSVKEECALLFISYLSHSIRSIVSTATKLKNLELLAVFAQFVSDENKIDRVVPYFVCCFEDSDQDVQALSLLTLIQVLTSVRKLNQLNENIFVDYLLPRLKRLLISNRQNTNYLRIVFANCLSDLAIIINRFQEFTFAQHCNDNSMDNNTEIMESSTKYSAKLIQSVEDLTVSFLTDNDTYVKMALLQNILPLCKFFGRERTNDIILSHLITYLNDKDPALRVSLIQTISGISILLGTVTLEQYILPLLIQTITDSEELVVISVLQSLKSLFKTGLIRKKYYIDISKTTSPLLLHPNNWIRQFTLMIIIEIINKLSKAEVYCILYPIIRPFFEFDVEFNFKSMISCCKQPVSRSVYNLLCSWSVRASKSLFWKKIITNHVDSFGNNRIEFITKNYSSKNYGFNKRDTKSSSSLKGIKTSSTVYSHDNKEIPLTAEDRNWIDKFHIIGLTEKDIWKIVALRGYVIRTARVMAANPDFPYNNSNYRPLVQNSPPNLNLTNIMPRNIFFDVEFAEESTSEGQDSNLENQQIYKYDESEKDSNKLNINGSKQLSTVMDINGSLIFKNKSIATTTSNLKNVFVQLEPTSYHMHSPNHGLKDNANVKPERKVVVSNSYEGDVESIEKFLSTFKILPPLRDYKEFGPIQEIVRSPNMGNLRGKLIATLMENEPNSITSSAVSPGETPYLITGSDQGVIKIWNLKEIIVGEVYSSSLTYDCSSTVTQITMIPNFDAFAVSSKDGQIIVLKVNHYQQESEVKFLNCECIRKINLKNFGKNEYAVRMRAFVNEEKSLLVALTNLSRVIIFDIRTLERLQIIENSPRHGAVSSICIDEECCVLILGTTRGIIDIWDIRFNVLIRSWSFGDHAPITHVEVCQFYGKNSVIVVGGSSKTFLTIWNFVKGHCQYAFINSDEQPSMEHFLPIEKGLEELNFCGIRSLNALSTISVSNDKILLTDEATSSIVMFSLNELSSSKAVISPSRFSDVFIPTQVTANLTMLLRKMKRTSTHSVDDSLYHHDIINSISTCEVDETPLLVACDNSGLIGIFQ

[3] = biological target: B3; test: crystal structure
[4] = biological target: B4; test: crystal structure
[5] = biological target: Saccharomyces cerevisiae Vps15/Vps34 heterodimer (Saccharomyces cerevisiae, UniProt P22219;P22543); test: pull-down
[6] = biological target: B1; test: SEC-MALS
[7] = biological target: B3; test: SEC-MALS

Row | Molecule | stoichiometry N [2] | binding result [4] | stoichiometry N [6] | also measured
1 | Vps30-NTD with CC1 region (domain or fragment) | – | – | – | stoichiometry N [1]: 1
2 | B1 | 1 | binds | – | binding result [3]: binds
3 | B2 | – | – | – | binding result [5]: binds
4 | B3 | 1 | binds | 1 | –
5 | B4 | 1 | – | 1 | stoichiometry N [7]: 1
